One may read the EC50 as the concentration needed to bring the measured effect to its halfway point. A high value points to a less potent agent. As a reminder, the Kd is the constant that tells how readily two partners part at equilibrium. A higher Kd goes with weaker binding. By koff is commonly meant a measure of how fast the partners let go of each other. In general, kon refers to the rate constant with which the complex forms.

The source of these data is patent US20250145714A1 (GENUV, published 2025).

The target of assay [1] is IL-2Rα-His (Acrobiosystems) (UniProt P01589). As to the kind of experiment: ELISA on plate-coated IL-2Rα-His, OD450 against antibody concentration (M). (In general: In an ELISA, binding on a coated surface is turned into a signal by an enzyme label.)
Assay [2] addresses IL-2Rβγ-His (Acrobiosystems) (UniProt P14784). Description: ELISA on plate-coated IL-2Rβγ-His, OD450 against antibody concentration (M).
Assay [3] concerns the target T1, Human PD-1 (Acrobiosystems, Cat #PD1-H5221) (human, UniProt Q15116 25-167).
T1 construct: Bought protein, immobilised on a CM5 chip; also called hPD-1
As to the kind of experiment: SPR Biacore 8K, human PD-1 amine-coupled on CM5, 1:1 model, pH 7.4. Here is the method: (§1) Human PD-1 (Acrobiosystems, Cat #PD1-H5221) at a concentration of 1 μg/ml was immobilized on a CM5 chip (Cytiva) using an amine coupling kit (Cytiva) according to the manufacturer's instructions. […] After each experiment in each concentration cycle, the chip was regenerated with glycine at pH 1.5. At this time, the running buffer used was a pH 7.4 or pH 6.0 HBS-EP+ buffer (0.1 M HEPES, 1.5 M NaCl, 0.03 M EDTA and 0.5% v/v Surfactant P20), and the experimental proteins were diluted in the running buffer.
(§2) The analysis was performed using the 1:1 binding model in Biacore evaluation software version 3.0, and the results of the kinetic constants (ka and kd) and affinity (KD) values are shown in Table 3 below.
Background: In SPR one partner is held on a chip, and binding of the other changes the refractive index at the surface.

In assay [4] the target is T1, Human PD-1 (Acrobiosystems, Cat …). Description: SPR Biacore 8K, human PD-1 amine-coupled on CM5, 1:1 model, pH 6.0. On the procedure: as §1, §2

T1 sequence (Q15116 25-167 limits assumed): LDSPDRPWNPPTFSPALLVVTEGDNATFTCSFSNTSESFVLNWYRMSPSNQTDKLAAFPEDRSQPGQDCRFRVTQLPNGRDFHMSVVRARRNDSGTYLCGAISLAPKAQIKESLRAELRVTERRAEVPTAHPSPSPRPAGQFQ
IL-2Rβγ-His (Acrobiosystems), sequence (P14784 27-239 limits assumed, chain 1 of 2): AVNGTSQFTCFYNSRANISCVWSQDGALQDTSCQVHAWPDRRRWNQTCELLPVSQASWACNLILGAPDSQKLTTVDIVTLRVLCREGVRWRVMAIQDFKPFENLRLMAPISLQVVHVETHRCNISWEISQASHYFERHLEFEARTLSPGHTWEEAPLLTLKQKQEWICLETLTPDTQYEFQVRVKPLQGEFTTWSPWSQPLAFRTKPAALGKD
IL-2Rβγ-His (Acrobiosystems), sequence (P31785 23-262 limits assumed, chain 2 of 2, further chain): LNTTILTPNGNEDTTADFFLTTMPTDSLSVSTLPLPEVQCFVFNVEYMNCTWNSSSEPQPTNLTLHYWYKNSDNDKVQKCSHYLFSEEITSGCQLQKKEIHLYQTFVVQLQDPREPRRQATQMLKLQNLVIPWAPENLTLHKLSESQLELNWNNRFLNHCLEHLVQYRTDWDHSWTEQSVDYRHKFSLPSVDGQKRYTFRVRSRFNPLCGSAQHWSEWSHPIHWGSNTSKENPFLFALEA
IL-2Rα-His (Acrobiosystems), sequence (P01589 22-213): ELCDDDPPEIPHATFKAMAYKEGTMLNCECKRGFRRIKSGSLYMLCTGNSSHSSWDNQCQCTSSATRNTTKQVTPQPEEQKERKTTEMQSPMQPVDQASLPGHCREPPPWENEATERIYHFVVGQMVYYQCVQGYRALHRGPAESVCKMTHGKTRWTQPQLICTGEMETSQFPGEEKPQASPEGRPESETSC

As for “Fc-IL2 (control antibody; prepared in-house) (Fc fusion)”, the EC50 in assay [1] was 0.325 nM; in assay [2], 7.99 nM.

B1: 1G1-h70 (antibody, V domains shown)
VH: QVQLVQSGAEVKKPGASVKVSCKASGYTFTGYWMHWVRQAPGQGLEWIGMIHPNSDTTTYNEKFKNRVTMTRDTSISTAYMELSRLRSDDTAVYYCAGTDQAAWFAFWGQGTTVTVSS
VL: DIVMTQTPLSLSVTPGQPASISCRSSQNIVHSQGDTYLEWYLQKPGQSPQLLIYKVSKRFSGVPDRFSGSGSGTDFTLKISRVEAEDVGVYYCFQGSHVPWTFGGGTKVEIK
notes: also called humanized anti-PD-1 antibody 1G1-h70; anti-PD-1 antibody
In assay [3], B1 gave a dissociation constant Kd of 0.237 nM, a koff of 3.51e-05 s⁻¹ and a kon of 148000 M⁻¹ s⁻¹. Besides, in assay [4], binding was put at a Kd of 0.0481 nM, the koff is 1.38e-05 s⁻¹ and the kon was 286000 M⁻¹ s⁻¹.
